Measured values from the DeepSol protein solubility set.

Experiment: soluble on expression in E. coli; label from the status in PepcDB or PDB records

Q: Which “soluble on expression in E. coli” value does the source give for “MSLTTGAAVAFVDTLHDAAVRDLGWLLASPSMLTAVPGAPLARPWPDATGQAAVEAWLAALDAQPGPLHRALDGFRPTRLGRYAECLLEYFLTHGPSLRLVAANLPLRSNGRTLGEVDFLVDTPDGRRLHWEMAVKCYLCAPVRDGASLADFVGPNLVDRFDRKRSRLLDHQLRMGEHDGFARLGYGAPADAQMFIKGWLFHPYGAPVPPVSVEIAPDHPRGFWLTHGQWPAWAAAQRDGAAWSVLPRLAWLAPRRAVAGAGVEPEPLASALELPAVLATRQTPDMIAIHEKGGDGTWRETARGFVVPDDWPARAQAFAAQDHEGHHHHHH” here?
A: soluble

Q: Which “soluble on expression in E. coli” value does the source give for “MSLTTLTTALKAGPEAPAILHRCRELVAPALAEAVGGMHPWMREMADYALGRGAAGGAPAAHSQGKGVRQALAVLGAEAAGGPAEAGVPAAVAVELVHTFSLLHDDIMDGDAMRRGRPALWKAYGTGPAVLAGDALFALAVQTLTTASAPGAAHRLSAALGDLVRGQADDLLFAHRPWTGPEAVSVAEYEAMAEHKTGSLLGCALALGAHLAGAPEETAAVLDRTGRHLGVAFQIVDDLLGIWGDPAVTGKPVHGDLRQGKKTFPVLAALATPSGSALEGLLTARDDTAVVRAAAVVEQAGGRSAALREARRHLTVAHGLLASVQPAPRPAADLRTLLSALSRRTIEGHHHHHH” here?
A: soluble

Q: Which “soluble on expression in E. coli” value does the source give for “MSLTTMAEHFLTLLVVPAIKKDYGSQEDFTQVWNTTMKGLKCCGFTNYTDFEDSPYFKENSAFPPFCCNDNVTNTANETCTKQKAHDQKVEGCFNQLLYDIRTNAVTVGEGHHHHHH” here?
A: not soluble

Q: For “MSLTTVMSGVTTLMRAPIGSIRESEGGRDFIRNVFEESVQIMRVLGAPVKENITEEHMKTMDKISYNMKSSMQRDMEKGSSVEGTHLQGYLLDVAKQFSIEAPLLGAVYQNLKVYEEMTLNRSAIELDEGHHHHHH”, which “soluble on expression in E. coli” value is on record?
A: soluble

Q: With “MSLTVLILRCIMVKSTTRKSAKSDRRRYNRIARFYDLFETPMELMNFRKWRKMLFDLIKAEKGLVLEIGAGTGKNIPHYPSNVVALDISEKMLERAVRRAKESGKKVDFLLADAENLPFRSNSFDVVFTTFVFCSVDDPVRGLREAFRVLKKGGRAYFLEHMLPKSRFLHPLFNLLNPIFRAFGPEINRRTDENIQRAGFQIVKEYMLFGSVFRLIVAEKPLDSVDEASGYSLKRSESSDSSNFRRFIGQSLLPLRLTQLLREGHHHHHH” as the sequence, how does the “soluble on expression in E. coli” value read?
A: not soluble

Q: Which “soluble on expression in E. coli” value does the source give for “MSLTWVSVEAKIDYELDPTVLFHLTEENAGDRFYYKKNDNKTSFFGYHAITRFKNDFENKQSIFREWQKYKSDIELIHPSSDKHHLKICGGFQFSMHKSGDEWREFGINHFILPEVLITMENGVSYITYTVKAEQFEIEQFKALIAHLTQNTIDSEFEIGNIKRIEDIYKDEWRDLVKDTIDVLDEHKKIVLARKRLVMFDKNINIPYILQKASQGEHNSYLFVLESQDSIFFSQTPEQLMEVNNGILSTKAVAGTIKRTHQDEVDKENIQAFLNDDKNLNEHRFVVESILNDIAPYVRDITFNETPQILTNDHLYHLYTKIKGQLENDSYIGLLDNLHPTPALGGYPKAEAIEYIEQNEFGTRGLYGAPVGYIDMNDDCEFIVAIRSMLIKKNQATLFAGCGIVKNSDADSEVEETAVKFNPMMKALGVEEYEGHHHHHH” here?
A: not soluble

Q: Which “soluble on expression in E. coli” value does the source give for “MSLVDIHSHIIPGIDDGSNSLETTLNMMSIAKEAGVTKMVATSHYYRGKFENSISVIEKKANELNYTLKEKGVDIDVIPGQEVFIDNYTLKDYKEGIIGTINNTDYMLVEFDMMSLGENAIDTLYELQIKGIKPIIAHPERYTYIQKDIYKINELMDENIYFQVNAGSIEGLFGKTVQKTALKLVEEGVISFIASDAHSAGKRCPGYEKALHDLTKIDKTLAEKFIKNSNLLLENEKIENKVRKLKKKKTFFSFLKEGHHHHHH” here?
A: soluble

Q: With “MSLVEKPVVIKFGGTSVRYAFEEALELVAKLHENMKIIVVVSALAGVTDCLLRLAKGDKSALLEIDEIHEELSQELNVQLEHLIHQLKKTINSKSSFPSEKAFIDEIASFGERFSAKLFSEGLKILGITARPVDSKDVLFVKGEFGNAEVEFKKSAQGVDVLYRMLRRGIVPVVTGYYGNLNGFRATFGRGGSDYSATSIASLVNAKAVLIMSDVEGIYTADPKLVPPARLIHYISYKEAKTAAKLGMKVLHPRAIDPVEGKIPVILGKTRDLKFGTLISHESQGIPIVTHKLLENHAEISVVSVKTNIPLPYEVYEEGDLYFKIKTSKDQFLEVLRDVHRRVVENENLHSSHDGELWTWVEGHHHHHH” as the sequence, how does the “soluble on expression in E. coli” value read?
A: soluble

Q: Which “soluble on expression in E. coli” value does the source give for “MSLVKDIYSESIQIQIAASSMLSENITNATQMVMQCLLGGNKVIACGVSRSYANAQFLVSNLLNRYDLVRPSFPSVLLSLESAVGSSLVFEQPPEELYCHQFNASAKSGDLLIAFAPLGTEKIVLNIISHAVSKEVNVIVLTGSNNDAIQGILADKDLEISIPATKESRILENHLFVINALCELVDQTLFPSAEGGSHHHHHH” here?
A: soluble
